Experimental data: US20190241648A1 (STATEN BIOTECHNOLOGY B V, published 2019)
Ends that are not written are not given here.

Legend:
Experiment in all cases: peptide microarray
ApoC3 peptide … D45Q = target: T1, ApoC3 peptide … D45Q (human, cyclic constrained)
T1 peptide: ARGWVTQGFSSLK
Description: (§1) Amino acids G41 and G46 were highly conserved; substitution of G41 by E, N or Q caused a decrease of spot intensities by ˜70% or higher, whereas exchange of G46 by N was hardly tolerated and resulting in 90% reduced spot intensities. […] Amino acid positions V43, D45 and K51 were also well conserved with a clear preference for the wild type amino acids and a certain tolerance particularly for conservative exchanges by Y, F and I (V43), A, E and K (D45) as well as by R (K51). […] Replacement of V43 by Y, however, increased spot intensity by two fold. Amino acid positions W42 and 48S were poorly conserved or even variable; both positions were susceptible for only a number of amino acid exchanges, and exchange by F, S and T (W42) or by E (S48) even caused a two- to three-fold increase of spot intensity. Amino acid positions A39 and R40 were variable.
(§2) Pre: staining of one of the ApoC3 peptide microarrays was done with the secondary antibody goat anti-human IgG (Fe) DyLight680 (1:5000) and control antibody mouse monoclonal anti-HA (12CA5) DyLight800 (1:2000) to investigate background interactions of the secondary antibody with the antigen-derived peptides that could interfere with the main assays. Subsequent incubation of other ApoC3 peptide microarrays with antibody samples was followed by staining with secondary and control antibodies as well as read-out at scanning intensities of 7/7 (red/green). The additional HA peptides framing the peptide arrays were stained as internal quality control to confirm the assay quality and the peptide microarray integrity.

ApoC3 peptide … S48E = ApoC3 peptide … S48E (human, cyclic constrained)
Description: as §1, §2

ApoC3 peptide … G41D = target: T2, ApoC3 peptide … G41D (human, also: cyclic constrained)
T2 peptide: ARDWVTDGFSSLK
Description: as §1, §2

ApoC3 peptide … D45N = target: T3, ApoC3 peptide … D45N (human, cyclic constrained)
T3 peptide: ARGWVTNGFSSLK
Description: as §1, §2

ApoC3 peptide … W42R = target: T4, ApoC3 peptide … W42R (human, not fully specified (bridges); also: cyclic constrained)
T4 peptide: ARGRVTDGFSSLK
Description: as §1, §2

ApoC3 peptide … D45F = target: T5, ApoC3 peptide … D45F (human, not fully specified (bridges); also: cyclic constrained)
T5 peptide: ARGWVTFGFSSLK
Description: as §1, §2

ApoC3 peptide … R40E = target: T6, ApoC3 peptide … R40E (human, not fully specified (bridges); also: cyclic constrained)
T6 peptide: AEGWVTDGFSSLK
Description: as §1, §2

ApoC3 peptide … K51I = target: T7, ApoC3 peptide … K51I (human, not fully specified; cyclic constrained)
T7 peptide: ARGWVTDGFSSLI
Description: as §1, §2

ApoC3 peptide … L50K = target: T8, ApoC3 peptide … L50K (human, not fully specified; cyclic constrained)
T8 peptide: ARGWVTDGFSSKK
Description: as §1, §2

ApoC3 peptide … T44Q = target: T9, ApoC3 peptide … T44Q (human, not fully specified (bridges); also: cyclic constrained)
T9 peptide: ARGWVQDGFSSLK
Description: as §1, §2

ApoC3 peptide … A39E = target: T10, ApoC3 peptide … A39E (human, cyclic constrained)
T10 peptide: ERGWVTDGFSSLK
Description: as §1, §2

ApoC3 peptide … V43A = target: T11, ApoC3 peptide … V43A (human, not fully specified; cyclic constrained)
T11 peptide: ARGWATDGFSSLK
Description: as §1, §2

ApoC3 peptide … L50Q = target: T12, ApoC3 peptide … L50Q (human, not fully specified (bridges); also: cyclic constrained)
T12 peptide: ARGWVTDGFSSQK
Description: as §1, §2

ApoC3 peptide … S49K = target: T13, ApoC3 peptide … S49K (human, cyclic constrained)
T13 peptide: ARGWVTDGFSKLK
Description: as §1, §2

ApoC3 peptide … R40Q = target: T14, ApoC3 peptide … R40Q (human, not fully specified (bridges); also: cyclic constrained)
T14 peptide: AQGWVTDGFSSLK
Description: as §1, §2

ApoC3 peptide … R40I = target: T15, ApoC3 peptide … R40I (human, not fully specified (bridges); also: cyclic constrained)
T15 peptide: AIGWVTDGFSSLK
Description: as §1, §2

ApoC3 peptide … F47I = target: T16, ApoC3 peptide … F47I (human, not fully specified (bridges); also: cyclic constrained)
T16 peptide: ARGWVTDGISSLK
Description: as §1, §2

ApoC3 peptide … G46M = target: T17, ApoC3 peptide … G46M (human, not fully specified (bridges); also: cyclic constrained)
T17 peptide: ARGWVTDMFSSLK
Description: as §1, §2

ApoC3 peptide … D45W = target: T18, ApoC3 peptide … D45W (human, cyclic constrained)
T18 peptide: ARGWVTWGFSSLK
Description: as §1, §2

ApoC3 peptide … V43H = target: T19, ApoC3 peptide … V43H (human, not fully specified; cyclic constrained)
T19 peptide: ARGWHTDGFSSLK
Description: as §1, §2

ApoC3 peptide … T44N = target: T20, ApoC3 peptide … T44N (human, not fully specified (bridges); also: cyclic constrained)
T20 peptide: ARGWVNDGFSSLK
Description: as §1, §2

ApoC3 peptide … R40M = target: T21, ApoC3 peptide … R40M (human, not fully specified (bridges); also: cyclic constrained)
T21 peptide: AMGWVTDGFSSLK
Description: as §1, §2

ApoC3 peptide … D45P = target: T22, ApoC3 peptide … D45P (human, cyclic constrained)
T22 peptide: ARGWVTPGFSSLK
Description: as §1, §2

ApoC3 peptide … R40Y = target: T23, ApoC3 peptide … R40Y (human, thioether (positions not given here); also: cyclic constrained)
T23 peptide: AYGWVTDGFSSLK
Description: as §1, §2

ApoC3 peptide … F47W = target: T24, ApoC3 peptide … F47W (human, also: cyclic constrained)
T24 peptide: ARGWVTDGWSSLK
Description: as §1, §2

ApoC3 peptide … D45H = target: T25, ApoC3 peptide … D45H (human, cyclic constrained)
T25 peptide: ARGWVTHGFSSLK
Description: as §1, §2

ApoC3 peptide … A39V = target: T26, ApoC3 peptide … A39V (human, not fully specified (bridges); also: cyclic constrained)
T26 peptide: VRGWVTDGFSSLK
Description: as §1, §2

ApoC3 peptide … G41K = target: T27, ApoC3 peptide … G41K (human, also: cyclic constrained)
T27 peptide: ARKWVTDGFSSLK
Description: as §1, §2

ApoC3 peptide … R40C = target: T28, ApoC3 peptide … R40C (human, not fully specified (bridges); also: cyclic constrained)
T28 peptide: ACGWVTDGFSSLK
Description: as §1, §2

ApoC3 peptide … T44V = target: T29, ApoC3 peptide … T44V (human, not fully specified (bridges); also: cyclic constrained)
T29 peptide: ARGWVVDGFSSLK
Description: as §1, §2

ApoC3 peptide … L50M = target: T30, ApoC3 peptide … L50M (human, not fully specified; cyclic constrained)
T30 peptide: ARGWVTDGFSSMK
Description: as §1, §2

B1: anti-ApoC3 antibody 14C7 (antibody, V domains shown)
VH: QVQVQESGPGLVKPSQTLSLTCTVSGGSITTNSYYWSWIRQPPGKGLEWMGAIDYSGDTYYSPSLKSRTSISRDTSKNQFTLQLTSVTPEDTAVYYCVSRIPTGEYWGQGTQVTVSS
VL: QTVVTQEPSLSVSPGGTVTLTCGLNSGSVTSSNYPDWYQQTPGQAPRLLIYNTNSRHSGVPSRFSGSISGNKAALTITGAQPEDEADYYCALYMGSDSVVFGGGTHLTVL
notes: it was detected with goat anti-human IgG (Fc); also called mAb 14C7; llama antibody 14C7
% of binding to wild-type peptide (ApoC3 peptide … D45Q): 21%
% of binding to wild-type peptide (ApoC3 peptide … S48E): 290%
% of binding to wild-type peptide (ApoC3 peptide … G41D): 19.4%
% of binding to wild-type peptide (ApoC3 peptide … D45N): 4.85%
% of binding to wild-type peptide (ApoC3 peptide … W42R): 141%
% of binding to wild-type peptide (ApoC3 peptide … D45F): 0%
% of binding to wild-type peptide (ApoC3 peptide … R40E): 76.9%
% of binding to wild-type peptide (ApoC3 peptide … K51I): 0.86%
% of binding to wild-type peptide (ApoC3 peptide … L50K): 0.74%
% of binding to wild-type peptide (ApoC3 peptide … T44Q): 0%
% of binding to wild-type peptide (ApoC3 peptide … A39E): 98.9%
% of binding to wild-type peptide (ApoC3 peptide … V43A): 26.9%
% of binding to wild-type peptide (ApoC3 peptide … L50Q): 0.12%
% of binding to wild-type peptide (ApoC3 peptide … S49K): 3.23%
% of binding to wild-type peptide (ApoC3 peptide … R40Q): 85.8%
% of binding to wild-type peptide (ApoC3 peptide … R40I): 35.1%
% of binding to wild-type peptide (ApoC3 peptide … F47I): 0%
% of binding to wild-type peptide (ApoC3 peptide … G46M): 0%
% of binding to wild-type peptide (ApoC3 peptide … D45W): 0.06%
% of binding to wild-type peptide (ApoC3 peptide … V43H): 14.6%
% of binding to wild-type peptide (ApoC3 peptide … T44N): 2.49%
% of binding to wild-type peptide (ApoC3 peptide … R40M): 69.6%
% of binding to wild-type peptide (ApoC3 peptide … D45P): 0%
% of binding to wild-type peptide (ApoC3 peptide … R40Y): 37.5%
% of binding to wild-type peptide (ApoC3 peptide … F47W): 1.57%
% of binding to wild-type peptide (ApoC3 peptide … D45H): 1.81%
% of binding to wild-type peptide (ApoC3 peptide … A39V): 76%
% of binding to wild-type peptide (ApoC3 peptide … G41K): 18%
% of binding to wild-type peptide (ApoC3 peptide … R40C): 62.3%
% of binding to wild-type peptide (ApoC3 peptide … T44V): 4.26%
% of binding to wild-type peptide (ApoC3 peptide … L50M): 0.65%
